Here are results for five proteins from patent publication US20170355730.

For one data set, the target named is T1, Antp-PCP.
T1 chain: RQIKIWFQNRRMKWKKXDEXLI

The target in a further data set is T2, cFΦR4-PCP (not fully specified).
T2 chain: FXRRRRQXDEXLI

In the next data set the target is T3, R9-PCP.
T3 chain: RRRRRRRRRXDEXLI

B1: PTP1B (construct not stated) (protein)
chain: MEMEKEFEQIDKSGSWAAIYQDIRHEASDFPCRVAKLPKNKNRNRYRDVSPFDHSRIKLHQEDNDYINASLIKMEEAQRSYILTQGPLPNTCGHFWEMVWEQKSRGVVMLNRVMEKGSLKCAQYWPQKEEKEMIFEDTNLKLTLISEDIKSYYTVRQLELENLTTQETREILHFHYTTWPDFGVPESPASFLNFLFKVRESGSLSPEHGPVVVHCSAGIGRSGTFCLADTCLLLMDKRKDPSSVDIKKVLLEMRKFRMGLIQTADQLRFSYLAVIEGAKFIMGDSSVQDQWKELSHEDLEPPPEHIPPPPRPPKRILEPHN
The term kcat/KM denotes the second-order rate constant that governs catalysis at low substrate concentration. With B1, the results for the kcat/KM with Antp-PCP, with cFΦR4-PCP and in the data set with R9-PCP were 17400 M⁻¹ s⁻¹, 37100 M⁻¹ s⁻¹ and 14700 M⁻¹ s⁻¹, respectively.

B2: TCPTP (protein)
chain: MPTTIEREFEELDTQRRWQPLYLEIRNESHDYPHRVAKFPENRNRNRYRDVSPYDHSRVKLQNAENDYINASLVDIEEAQRSYILTQGPLPNTCCHFWLMVWQQKTKAVVMLNRIVEKESVKCAQYWPTDDQEMLFKETGFSVKLLSEDVKSYYTVHLLQLENINSGETRTISHFHYTTWPDFGVPESPASFLNFLFKVRESGSLNPDHGPAVIHCSAGIGRSGTFSLVDTCLVLMEKGDDINIKQVLLNMRKYRMGLIQTPDQLRFSYMAIIEGAKCIKGDSSIQKRWKELSKEDLSPAFDHSPNKIMTEKYN
As to B2, the values for the kcat/KM in the data set with Antp-PCP, with cFΦR4-PCP and with R9-PCP were 970 M⁻¹ s⁻¹, 2780 M⁻¹ s⁻¹ and 457 M⁻¹ s⁻¹, respectively.

B3: SHP2 (protein)
chain: AEIESRVRELSKLAETTDKVKQGFWEEFETLQQQECKLLYSRKEGQRQENKNKNRYKNILPFDHTRVVLHDGDPNEPVSDYINANIIMPEFETKCNNSKPKKSYIATQGCLQNTVNDFWRMVFQENSRVIVMTTKEVERGKSKCVKYWPDEYALKEYGVMRVRNVKESAAHDYTLRELKLSKVGQGNTERTVWQYHFRTWPDHGVPSDPGGVLDFLEEVHHKQESIMDAGPVVVHCSAGIGRTGTFIVIDILIDIIREKGVDCDIDVPKTIQMVRSQRSGMVQTEAQYRFIYMAVQHYIETLQRR
In the case of B3, the kcat/KM in the data set with Antp-PCP amounted to 2210 M⁻¹ s⁻¹; with cFΦR4-PCP, 7400 M⁻¹ s⁻¹; with R9-PCP, 248 M⁻¹ s⁻¹.

B4: CD45 (protein)
chain: YKIYDLHKKRSCNLDEQQELVERDDEKQLMNVEPIHADILLETYKRKIADEGRLFLAEFQSIPRVFSKFPIKEARKPFNQNKNRYVDILPYDYNRVELSEINGDAGSNYINASYIDGFKEPRKYIAAQGPRDETVDDFWRMIWEQKATVIVMVTRCEEGNRNKCAEYWPSMEEGTRAFGDVVVKINQHKRCPDYIIQKLNIVNKKEKATGREVTHIQFTSWPDHGVPEDPHLLLKLRRRVNAFSNFFSGPIVVHCSAGVGRTGTYIGIDAMLEGLEAENKVDVYGYVVKLRRQRCLMVQVEAQYILIHQALVEYNQFGETEVNLSELHPYLHNMKKRDPPSEPSPLEAEFQRLPSYRSWRTQHIGNQEENKSKNRNSNVIPYDYNRVPLKHELEMSKESEHDSDESSDDDSDSEEPSKYINASFIMSYWKPEVMIAAQGPLKETIGDFWQMIFQRKVKVIVMLTELKHGDQEICAQYWGEGKQTYGDIEVDLKDTDKSSTYTLRVFELRHSKRKDSRTVYQYQYTNWSVEQLPAEPKELISMIQVVKQKLPQKNSSEGNKHHKSTPLLIHCRDGSQQTGIFCALLNLLESAETEEVVDIFQVVKALRKARPGMVSTFEQYQFLYDVIASTYPAQNGQVKKNNHQEDKIEFDNEVDKVKQDANCVNPLGAPEKLPEAKEQAEGSEPTSGTEGPEHSVNGPASPALNQGS
As to B4, the kcat/KM came to 22300 M⁻¹ s⁻¹ with Antp-PCP, 35100 M⁻¹ s⁻¹ in the data set with cFΦR4-PCP and 2940 M⁻¹ s⁻¹ with R9-PCP.

B5: VHR (protein)
chain: MSGSFELSVQDLNDLLSDGSGCYSLPSQPCNEVTPRIYVGNASVAQDIPKLQKLGITHVLNAAEGRSFMHVNTNANFYKDSGITYLGIKANDTQEFNLSAYFERAADFIDQALAQKNGRVLVHCREGYSRSPTLVIAYLMMRQKMDVKSALSIVRQNREIGPNDGFLAQLCQLNDRLAKEGKLKP
For the protein B5, the figures for the kcat/KM with Antp-PCP, with cFΦR4-PCP and with R9-PCP were 2030 M⁻¹ s⁻¹, 2460 M⁻¹ s⁻¹ and 6240 M⁻¹ s⁻¹, respectively.
